From publication PMC12903857

What was measured:
15-mer A-RAF peptide [1] = assay: fluorescence polarisation; fluorescence anisotropy; Kd of the 15-mer peptides, told apart by the paper from the appKd in the presence of DMSO
15-mer A-RAF peptide [2] = assay: fluorescence polarisation; fluorescence anisotropy protein titration: 14-3-3σ titrated into 10 nM labeled peptide in the presence of DMSO; apparent
15-mer B-RAF peptide = assay: fluorescence polarisation; fluorescence anisotropy protein titration: 14-3-3σ titrated into 10 nM labeled peptide in the presence of a saturating concentration (100 μM) of a covalent compound, which is named in the quantity of each row; apparent

Kd (15-mer A-RAF peptide [1]): 8 µM | Kd (15-mer A-RAF peptide [2]): 3 µM | fold stabilization with 22 (against DMSO) (15-mer B-RAF peptide): 448 fold | fold stabilization with 23 (against DMSO) (15-mer B-RAF peptide): 448 fold
Substance: 14-3-3σ (from UniProt P31947 1-248) (natural protein)
